Columns and labels:
[1] = target: plasmin-cleaved von Willebrand factor (cVWF) (human) (UniProt P04275); assay: capture ELISA, cVWF in buffer, detection with biotinylated VHH B9
[2] = target: plasmin-cleaved von Willebrand factor (cVWF) (human) (UniProt P04275); assay: capture ELISA, cVWF spiked in citrated normal pooled plasma, detection with biotinylated VHH B9
[3] = target: plasmin-cleaved von Willebrand factor (cVWF) (human) (UniProt P04275); assay: capture ELISA, VHH coated on plate, concentration series of VWF and cVWF in buffer, detection with biotinylated VHH B9; reference: intact VWF
[4] = target: T1, intact von Willebrand factor (VWF) (human, UniProt P04275 764-2813); assay: capture ELISA, VHH coated on plate, concentration series of VWF in buffer, detection with biotinylated VHH B9 and streptavidin-poly HRP
T1 construct: also called uncleaved VWF; purified VWF
T1 sequence (P04275 764-2813 limits assumed): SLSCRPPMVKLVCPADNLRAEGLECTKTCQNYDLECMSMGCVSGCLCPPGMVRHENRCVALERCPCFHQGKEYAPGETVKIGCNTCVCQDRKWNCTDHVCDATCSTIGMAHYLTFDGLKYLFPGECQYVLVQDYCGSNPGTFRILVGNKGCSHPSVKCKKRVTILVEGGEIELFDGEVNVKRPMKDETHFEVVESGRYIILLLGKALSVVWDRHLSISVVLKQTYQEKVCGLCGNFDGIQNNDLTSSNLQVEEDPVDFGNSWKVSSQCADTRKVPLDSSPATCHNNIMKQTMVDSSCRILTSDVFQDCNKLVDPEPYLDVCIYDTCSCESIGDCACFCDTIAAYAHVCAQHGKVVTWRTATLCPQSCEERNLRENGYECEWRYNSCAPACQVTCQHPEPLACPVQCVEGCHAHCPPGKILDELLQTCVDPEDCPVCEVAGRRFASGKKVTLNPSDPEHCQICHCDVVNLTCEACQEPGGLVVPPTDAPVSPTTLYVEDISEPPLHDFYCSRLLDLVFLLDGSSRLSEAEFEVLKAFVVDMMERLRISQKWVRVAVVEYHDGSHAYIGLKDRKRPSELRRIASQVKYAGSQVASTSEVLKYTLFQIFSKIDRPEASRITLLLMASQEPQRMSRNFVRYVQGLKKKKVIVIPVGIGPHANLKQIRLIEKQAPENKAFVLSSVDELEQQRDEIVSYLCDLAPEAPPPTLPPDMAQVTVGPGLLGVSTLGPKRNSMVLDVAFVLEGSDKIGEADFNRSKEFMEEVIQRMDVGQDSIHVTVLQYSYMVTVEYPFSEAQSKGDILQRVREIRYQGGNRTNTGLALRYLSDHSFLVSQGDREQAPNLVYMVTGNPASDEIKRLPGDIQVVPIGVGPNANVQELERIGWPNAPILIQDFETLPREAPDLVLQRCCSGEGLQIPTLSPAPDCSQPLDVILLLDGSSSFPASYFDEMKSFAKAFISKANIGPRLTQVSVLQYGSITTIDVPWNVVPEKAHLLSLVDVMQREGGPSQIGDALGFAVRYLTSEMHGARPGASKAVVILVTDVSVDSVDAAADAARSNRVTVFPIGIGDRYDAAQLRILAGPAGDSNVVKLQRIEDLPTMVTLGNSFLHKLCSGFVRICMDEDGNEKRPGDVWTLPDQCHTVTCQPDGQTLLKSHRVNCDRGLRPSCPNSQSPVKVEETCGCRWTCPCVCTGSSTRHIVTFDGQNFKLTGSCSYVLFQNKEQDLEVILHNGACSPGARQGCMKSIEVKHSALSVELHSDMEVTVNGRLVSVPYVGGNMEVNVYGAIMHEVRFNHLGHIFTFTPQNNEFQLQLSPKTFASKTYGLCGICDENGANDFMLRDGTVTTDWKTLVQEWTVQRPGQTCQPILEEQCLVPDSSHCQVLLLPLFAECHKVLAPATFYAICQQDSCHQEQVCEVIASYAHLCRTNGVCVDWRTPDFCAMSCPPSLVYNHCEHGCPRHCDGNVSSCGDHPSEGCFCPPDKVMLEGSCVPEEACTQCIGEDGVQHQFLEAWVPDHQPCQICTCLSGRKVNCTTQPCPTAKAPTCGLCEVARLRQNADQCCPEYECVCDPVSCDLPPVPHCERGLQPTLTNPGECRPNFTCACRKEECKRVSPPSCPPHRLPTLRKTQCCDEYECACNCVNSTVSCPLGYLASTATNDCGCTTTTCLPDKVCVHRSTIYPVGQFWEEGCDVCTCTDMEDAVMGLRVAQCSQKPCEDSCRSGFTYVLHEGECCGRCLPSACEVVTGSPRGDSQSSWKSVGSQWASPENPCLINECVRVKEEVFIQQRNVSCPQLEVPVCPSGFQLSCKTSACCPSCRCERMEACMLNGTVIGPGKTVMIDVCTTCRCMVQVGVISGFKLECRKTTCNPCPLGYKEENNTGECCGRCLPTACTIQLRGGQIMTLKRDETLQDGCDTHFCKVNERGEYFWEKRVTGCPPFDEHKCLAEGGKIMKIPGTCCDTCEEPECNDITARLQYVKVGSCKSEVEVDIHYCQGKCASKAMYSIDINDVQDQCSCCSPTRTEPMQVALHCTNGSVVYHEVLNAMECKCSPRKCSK

| sensitivity of the cVWF ELISA [1] [ng/mL] | sensitivity of the cVWF ELISA [2] [ng/mL] | fold discrimination between VWF and cVWF [3] [fold] | binding result [4] | Binder |
| --- | --- | --- | --- | --- |
| 4 | 4 |  |  | cVWF capture VHH #2 (G5) (VHH, not shown: small tags and cut ends) VHH: EVQLVESGGGLVQAGGSLRLSCAVSGRTVSNSMAWFRQAPEKEREFVAAISWNSGRTDYADSVKGRFTISRDNAKNTVDLQMNSLKAEDTAVYYCAVHRVRIEPKEYLYWGQGTQVTVSS |
| 8 | 8 | 144 |  | cVWF capture VHH #1 (F5) (VHH, not shown: small tags and cut ends) VHH: EVQLVESGGGLVQAGGSLRLSCAASGQTDSTYTGGWFRQAPGKEREFVATFSWNSGRTHFADSVKGRFTISRDNAKSTVFLQMNSLKPEDTAVYYCAAHRTSLTDYSFRYWGQGTHVTVSS |
|  |  |  | no binding | negative control VHH-R2 (VHH, Production and tags of this control are not described) VHH: QVQLQESGGGLVQAGGSLRLSCAASGRATSGHGHYGMGWFRQVPGKEREFVAAIRWSGKETWYKDSVKGRFTISRDNAKTTVYLQMNSLKPEDTAVYYCAARPVRVDDISLPVGFDYWGQGTQVTVSS |

Source: patent publication US20250289904A1 (UMC UTRECHT HOLDING B V, published 2025)
